Assay results: article PMC11912008

Target: Rabbit (Oryctolagus cuniculus) 80S ribosome (rabbit (endogenous in rabbit reticulocyte lysate)) (UniProt G1U0Q2)

IC50 of inhibition of translation of nanoluciferase mRNA in RRL [nM]	Substance
33	Refolded WT human angiogenin (from UniProt P03950 25-147) (enzyme)
440	Refolded angiogenin(K54E) (from UniProt P03950 25-147) (enzyme)
